The target of assay [1] is T1, human epidermal growth factor receptor (EGFR) (human, UniProt P00533 25-1210).
T1 construct: whole, on cells; also called HER-1; ErbB1
The assay is described as follows: flow cytometry on A431 cells. The protocol: (§1) The purified, monomeric humanized antibody variants were tested for binding to human epidermal growth factor receptor (EGFR, also referred to in the literature as HER-1 or ErbB1) on the A431 human epidermal cell line, using a flow cytometry-based assay. 200,000 cells (e.g., from human A431 cell line) in 180 μl FACS buffer (PBS containing 2% FCS and 5 mM EDTA) were transferred to 5 ml polystyrene tubes and 20 μl 10 fold concentrated anti-EGFR antibody (primary antibody) samples (1-5000 ng/ml final concentration) or PBS only were added. After gently mixing the samples, the tubes were incubated at 4° C. for 30 min in the dark. Subsequently, samples were washed twice with FACS buffer and pelleted at 300×g for 3 min. Supernatant was aspirated off and cells were taken up in 50 μl FACS buffer and 2 μl secondary antibody (anti-Fc-specific F(ab′)2-FITC fragments (Jackson Immuno Research Laboratories, USA)) was added and the tubes were incubated at 4° C. for 30 min. Samples were washed twice with FACS buffer and taken up in 500 μl of FACS buffer for analysis by Flow Cytometry. Binding was determined by plotting the geometric mean fluorescence against the antibody concentrations.
Only the I-HHA has strongly diminished binding activity (see FIG. 2). […] In this experiment, either the light chain, the heavy chain or both chains simultaneously of the ch-ICR62 were replaced by the above mentioned humanized constructs.
(In flow cytometry, cells or beads pass a laser one at a time.)

For assay [2], the target named is T1, human epidermal growth factor receptor …. Description: flow cytometry on A431 cells (FIG. 4). As for the experimental part:
as §1
FIGS. 4 and 5 compare the constructs of the series I-HLA1, I-HLA2, I-HLA3, I-HLA4, I-HLA5, and I-HLA6. […]

For assay [3] the target is unchanged. The assay is described as follows: flow cytometry on A431 cells; chain swap with ch-ICR62 (FIG. 1). The protocol: as §1
Only the I-HHA has strongly diminished binding activity (see FIG. 2). […]

Assay [4] has the same target. Description: flow cytometry on A431 cells; light chain variants paired with I-HHD. As for the experimental part:
as §1
Each of the I-KC variant constructs (I-KCl to I-KC9) was paired with a heavy chain variable region comprising construct I-HHD (SEQ ID NO:16 and SEQ ID NO:15) and a binding assay performed according to the methods described in the previous examples. Constructs I-KCl to I-KC9 were compared to the I-KC construct (SEQ ID NO:46 and SEQ ID NO:45) for binding affinity to EGFR in A431 target cells (FIG. 29). […] Therefore, when paired with a chimeric (e.g., humanized) heavy chain construct specific for EGFR, the light chain can be entirely human (e.g., from a human light chain V gene sequence) and still retain specific binding for EGFR. In particular, CDR2 and CDR3 can be entirely in human germline form.

Where a chain is given by its changes, count along the chain named.

B1: chimeric rat-human ICR62 antibody (antibody, V domains shown)
VH: QVNLLQSGAALVKPGASVKLSCKGSGFTFTDYKIHWVKQSHGKSLEWIGYFNPNSGYSTYNEKFKSKATLTADKSTDTAYMELTSLTSEDSATYYCTRLSPGGYYVMDAWGQGASVTVSS
VL: DIQMTQSPSFLSASVGDRVTINCKASQNINNYLNWYQQKLGEAPKRLIYNTNNLQTGIPSRFSGSGSGTDYTLTISSLQPEDFATYFCLQHNSFPTFGAGTKLELKR
notes: also called ch-ICR62; chimeric ICR62
For orientation: EC50 means the midpoint of the concentration-response curve. A high value points to a less potent agent. On to B1, for which the EC50 in assay [1] is roughly 0.3 µg/mL. Besides, in assay [2], the “EC50 fold lower relative to I-HLA4” value amounted to 2 fold.

B2: humanized ICR62 antibody I-HHB / I-KC (not glycoengineered) (antibody, human IgG1, V domains shown)
VH: QVQLVQSGAEVKKPGSSVKVSCKGSGFTFTDYKIHWVRQAPGQGLEWMGYFNPNSGYSTYAQKFQGRVTITADKSTSTAYMELSSLRSEDTAVYYCARLSPGGYYVMDAWGQGTTVTVSS
VL: DIQMTQSPSSLSASVGDRVTITCRASQGINNYLNWYQQKPGKAPKRLIYNTNNLQTGVPSRFSGSGSGTEFTLTISSLQPEDFATYYCLQHNSFPTFGQGTKLEIKR
notes: also called I-HHB/KC
As to B2, the binding result in assay [1] is “binds”.

B3: humanized ICR62 antibody I-HLA2 / I-KC (antibody, human IgG1, V domains shown)
VH: QVQLVQSGAEVKKPGASVKVSCKASGFTFTDYYMHWVRQAPGQGLEWMGWINPNSGYSTYNEKFQGQVTISADKSISTAYLQWSSLKASDTAMYYCARLSPGGYYVMDAWGQGTTVTVSS
VL: B2 VL
In assay [1], B3 returned a half-maximal effective concentration (EC50) of roughly 0.3 µg/mL.

B4: chimeric ICR62 heavy chain (rVH) combined with the I-KB light chain (antibody, human IgG1, V domains shown)
VH: B1 VH
VL: B2 VL with R24K, G28N, F71Y
notes: also called rVH / I-KB
For the molecule B4, in assay [3], the binding result is given as “binds”.

B5: I-HHC heavy chain combined with the chimeric ICR62 light chain (rVL) (antibody, human IgG1, V domains shown)
VH: B2 VH with A61N, Q62E, Q65K, G66S
VL: B1 VL
notes: also called I-HHC / rVL
As for B5, the binding result in assay [1] is listed as “binds”.

B6: humanized ICR62 antibody I-HLA / I-KB (antibody, human IgG1, V domains shown)
VH: QVQLVQSGAEVKKPGASVKVSCKASGFTFTDYYMHWVRQAPGQGLEWMGWINPNSGYSTYAQKFQGRVTMTADTSISTAYMELSRLRSDDTAVYYCARLSPGGYYVMDAWGQGTTVTVSS
VL: B2 VL with R24K, G28N, F71Y
B6: in assay [1], the binding result is recorded as “binds”.

B7: humanized ICR62 antibody I-HHD / I-KC4 (antibody, human IgG1, V domains shown)
VH: B2 VH with G24A
VL: B2 VL with N50T
As to B7, the binding result in assay [4] is reported as “binds”.

B8: humanized ICR62 antibody I-HHF / I-KC (antibody, human IgG1, V domains shown)
VH: B2 VH with T59N
VL: B2 VL
In the case of B8, the binding result in assay [1] is “binds”.

B9: humanized ICR62 antibody I-HHD / I-KC5 (antibody, human IgG1, V domains shown)
VH: B2 VH with G24A
VL: B2 VL with T51A
For B9, the binding result in assay [4] is given as “binds”.

B10: humanized ICR62 antibody I-HHC / I-KB (antibody, human IgG1, V domains shown)
VH: B2 VH with A61N, Q62E, Q65K, G66S
VL: B2 VL with R24K, G28N, F71Y
With B10, the binding result in assay [1] is listed as “binds”.

B11: humanized ICR62 antibody I-HLA3 / I-KC (antibody, human IgG1, V domains shown)
VH: B3 VH with F27Y, N61S, E62P, K63S
VL: B2 VL
With B11, in assay [1], the “EC50 fold increase relative to ch-ICR62, I-HLA1 and I-HLA2” value (from here on “EC50 fold increase relative to ch-ICR62”) was 2 fold.

B12: humanized ICR62 antibody I-HHD / I-KC3 (antibody, human IgG1, V domains shown)
VH: B2 VH with G24A
VL: B2 VL with N34G
As for B12, the “EC50 fold increase relative to the I-KC construct” value in assay [4] is 10 fold.

B13: humanized ICR62 antibody I-HHD / I-KC1 (antibody, human IgG1, V domains shown)
VH: B2 VH with G24A
VL: B2 VL with N30R
notes: also called I-KCl
Turning to B13, in assay [4], the binding result is listed as “binds”.

B14: humanized ICR62 antibody I-HHD / I-KC8 (antibody, human IgG1, V domains shown)
VH: B2 VH with G24A
VL: B2 VL with T56S
For B14, in assay [4], the binding result is on record as “binds”.

B15: humanized ICR62 antibody I-HLA1 / I-KC (antibody, human IgG1, V domains shown)
VH: B3 VH with N61S, E62P, K63S
VL: B2 VL
Regarding B15, in assay [1], the EC50 is roughly 0.3 µg/mL.

B16: humanized ICR62 antibody I-HLA9 / I-KC (antibody, human IgG1, V domains shown)
VH: B2 VH with Q1E, S16E, V18L, V20I, F27Y, T28S
VL: B2 VL
For the molecule B16, in assay [1], the binding result was “binds”.

B17: humanized ICR62 antibody I-HHG / I-KC (antibody, human IgG1, V domains shown)
VH: B2 VH with S58A
VL: B2 VL
In the case of B17, the binding result in assay [1] is given as “binds”.

B18: humanized ICR62 antibody I-HLA5 / I-KC (antibody, human IgG1, V domains shown)
VH: B3 VH with V2M, A9P, A16T, N61S, E62P, K63S
VL: B2 VL
As to B18, the “EC50 fold increase relative to ch-ICR62” value in assay [1] was 2 fold.

B19: humanized ICR62 antibody I-HLA / I-KA (antibody, human IgG1, V domains shown)
VH: B6 VH
VL: B2 VL with F71Y
Turning to B19, the binding result in assay [1] is recorded as “binds”.

B20: humanized ICR62 antibody I-HHD / I-KC2 (antibody, human IgG1, V domains shown)
VH: B2 VH with G24A
VL: B2 VL with Y32W
Take B20: the binding result in assay [4] is “binds”.

B21: humanized ICR62 antibody I-HLA8 / I-KC (antibody, human IgG1, V domains shown)
VH: B2 VH with V2M, A9P, S16T, G24A
VL: B2 VL
Regarding B21, the “EC50 fold decrease relative to ch-ICR62” value in assay [1] is 2 fold.

B22: humanized ICR62 antibody I-HHD / I-KC9 (antibody, human IgG1, V domains shown)
VH: B2 VH with G24A
VL: B2 VL with F94Y
For B22, the binding result in assay [4] is “binds”.

B23: humanized ICR62 antibody I-HLA7 / I-KC (antibody, human IgG1, V domains shown)
VH: B3 VH with V2M, A9P, A16T, Y33K, M34I, P41R, G44R, M48I
VL: B2 VL
With B23, the binding result in assay [1] is on record as “binds”.

B24: humanized ICR62 antibody I-HHD / I-KC7 (antibody, human IgG1, V domains shown)
VH: B2 VH with G24A
VL: B2 VL with N53S
As for B24, the binding result in assay [4] is “binds”.

B25: humanized ICR62 antibody I-HLA6 / I-KC (antibody, human IgG1, V domains shown)
VH: B3 VH with V2M, A9P, A16T
VL: B2 VL
As for B25, the “EC50 fold increase relative to ch-ICR62” value in assay [1] was 2 fold.

B26: humanized ICR62 antibody I-HHD / I-KC6 (antibody, human IgG1, V domains shown)
VH: B2 VH with G24A
VL: B2 VL with N52S
As for B26, the binding result in assay [4] was “binds”.

B27: humanized ICR62 antibody I-HLA4 / I-KC (antibody, human IgG1, V domains shown)
VH: B3 VH with F27Y
VL: B2 VL
As for B27, the “EC50 fold increase relative to ch-ICR62” value in assay [1] stood at 2 fold.

The values are drawn from patent publication US20110111461A1 (Hoffmann-La Roche, published 2011).
